# Results from paper PMC12018839.
# T1: GST-PIL15 (Oryza sativa (rice), UniProt Q0JNI9 1-637)
# T1 sequence: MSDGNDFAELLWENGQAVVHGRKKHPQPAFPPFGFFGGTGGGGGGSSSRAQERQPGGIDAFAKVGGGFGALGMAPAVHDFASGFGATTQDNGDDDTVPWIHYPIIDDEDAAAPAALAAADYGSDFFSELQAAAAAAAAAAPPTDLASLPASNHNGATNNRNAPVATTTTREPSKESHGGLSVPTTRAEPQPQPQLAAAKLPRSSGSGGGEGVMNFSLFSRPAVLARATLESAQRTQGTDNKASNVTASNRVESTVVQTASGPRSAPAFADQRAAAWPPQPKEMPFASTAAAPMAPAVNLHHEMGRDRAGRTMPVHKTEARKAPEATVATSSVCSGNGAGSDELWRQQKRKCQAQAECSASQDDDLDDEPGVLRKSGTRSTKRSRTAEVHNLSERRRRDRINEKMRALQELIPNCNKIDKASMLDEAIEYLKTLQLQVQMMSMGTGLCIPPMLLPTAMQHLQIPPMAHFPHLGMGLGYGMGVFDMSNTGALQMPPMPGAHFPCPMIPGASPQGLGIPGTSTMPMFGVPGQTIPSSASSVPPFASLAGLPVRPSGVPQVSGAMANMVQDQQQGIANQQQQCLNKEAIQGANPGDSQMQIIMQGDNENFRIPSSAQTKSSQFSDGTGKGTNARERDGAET
# B1: PIL15 EMSA probe (AMT1;2 promoter PBE-box) (dsDNA)
# DNA 1: AGGATTTCATGTGTTTTGGT
# DNA 2: ACCAAAACACATGAAATCCT
# Target: T1, GST-PIL15
# Test: EMSA
binder,measurement,value
B1,binding result,binds
